These results are taken from US20190127446A1.

The pKd is the negative decadic logarithm of the Kd, by convention in mol/L.

pKd: −log10 of the molar value.

Assay [1] has as its target soluble mouse Fcγ-receptor III (mouse) (UniProt P08508). The assay can be described thus: SPR (Biacore), soluble receptor injected over immobilized antibody, 1:1 Langmuir. Background: Surface plasmon resonance follows binding to a sensor surface in real time, without labels.
The target of assay [2] is soluble mouse Fcγ-receptor IIB (mouse) (UniProt P08101). The assay is described as above.
Sequence of soluble mouse Fcγ-receptor IIB (mouse) (P08101 other isoform, or with tags, fused parts or gaps): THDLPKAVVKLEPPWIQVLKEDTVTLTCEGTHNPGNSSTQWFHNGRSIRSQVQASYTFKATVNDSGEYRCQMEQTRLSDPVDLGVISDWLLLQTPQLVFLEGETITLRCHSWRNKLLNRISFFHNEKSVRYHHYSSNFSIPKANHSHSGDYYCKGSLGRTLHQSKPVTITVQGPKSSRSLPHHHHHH
Assay [3] addresses soluble mouse Fcγ-receptor III (mouse) (UniProt P08508). The assay can be described thus: ratio of SPR KA values.
Assay [4] deals with soluble version of the extracellular domain of gp75. The assay can be described thus: SPR; soluble gp75 extracellular domain injected over immobilized antibody.
Assay [5] addresses soluble mouse Fcγ-receptor IIB (mouse) (UniProt P08101). The assay can be described thus: SPR.
In assay [6] the target is soluble mouse Fcγ-receptor IV (mouse). The assay can be described thus: SPR (Biacore), soluble receptor injected over immobilized antibody, 1:1 Langmuir.
Assay [7] deals with soluble mouse Fcγ-receptor I (mouse) (UniProt P26151). Described as above.
Sequence of soluble mouse Fcγ-receptor I (mouse) (P26151 other isoform, or with tags, fused parts or gaps): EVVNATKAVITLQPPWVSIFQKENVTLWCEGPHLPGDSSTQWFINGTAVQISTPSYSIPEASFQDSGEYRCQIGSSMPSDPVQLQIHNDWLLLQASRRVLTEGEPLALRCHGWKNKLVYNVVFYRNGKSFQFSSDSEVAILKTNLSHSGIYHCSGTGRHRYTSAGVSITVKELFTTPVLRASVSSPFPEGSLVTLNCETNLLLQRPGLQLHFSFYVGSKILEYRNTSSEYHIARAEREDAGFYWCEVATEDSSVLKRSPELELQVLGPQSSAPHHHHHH
Assay [8] addresses soluble mouse Fcγ-receptor IV (mouse). The assay can be described thus: ratio of SPR KA values.
For assay [9] the target is unchanged. The assay can be described thus: SPR.
The target in assay [10] is soluble human Fcγ-receptor IIIA (158F-allele) (human) (UniProt P08637). The assay can be described thus: SPR, soluble human Fcγ-receptor and human IgG isotype.
Sequence of soluble human Fcγ-receptor IIIA (158F-allele) (human) (P08637 17-208): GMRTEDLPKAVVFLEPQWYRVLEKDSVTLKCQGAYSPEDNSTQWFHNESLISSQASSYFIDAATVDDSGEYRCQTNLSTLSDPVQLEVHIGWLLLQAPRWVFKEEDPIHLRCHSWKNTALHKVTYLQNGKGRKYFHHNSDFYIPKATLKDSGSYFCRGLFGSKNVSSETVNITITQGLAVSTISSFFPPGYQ
Assay [11] addresses soluble human Fcγ-receptor IIB (human) (UniProt P31994). The assay is described as above.
Assay [12] has as its target soluble human Fcγ-receptor IIA (131H-allele) (human) (UniProt P12318). The assay is described as above.
Assay [13] concerns the target soluble human Fcγ-receptor IIIA (158F-allele) (human) (UniProt P08637). The assay can be described thus: ratio of SPR KA values.
For assay [14], the target named is soluble human Fcγ-receptor IIA (131H-allele) (human) (UniProt P12318). The assay can be described thus: ratio of SPR KA values.
Sequence of soluble human Fcγ-receptor IIA (131H-allele) (human) (P12318 34-217): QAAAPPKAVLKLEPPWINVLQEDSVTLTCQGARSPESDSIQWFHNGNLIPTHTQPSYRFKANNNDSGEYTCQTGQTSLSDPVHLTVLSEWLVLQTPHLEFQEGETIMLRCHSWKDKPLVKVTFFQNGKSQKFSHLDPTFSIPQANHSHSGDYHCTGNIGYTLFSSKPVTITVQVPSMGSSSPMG

Sequence of soluble mouse Fcγ-receptor III (mouse) (P08508 other isoform, or with tags, fused parts or gaps): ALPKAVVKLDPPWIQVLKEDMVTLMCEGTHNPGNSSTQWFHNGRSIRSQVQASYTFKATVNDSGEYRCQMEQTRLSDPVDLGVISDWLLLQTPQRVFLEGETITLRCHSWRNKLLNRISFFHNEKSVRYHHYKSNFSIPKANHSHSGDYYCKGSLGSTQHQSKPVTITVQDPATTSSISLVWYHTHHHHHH
Sequence of soluble human Fcγ-receptor IIB (human) (P31994 43-217): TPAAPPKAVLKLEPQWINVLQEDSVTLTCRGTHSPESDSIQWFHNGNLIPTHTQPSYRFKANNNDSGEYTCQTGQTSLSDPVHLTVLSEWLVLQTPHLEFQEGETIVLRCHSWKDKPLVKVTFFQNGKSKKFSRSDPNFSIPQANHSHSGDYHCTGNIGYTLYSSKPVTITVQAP

As to “TA99-IgG1 (fucose-containing) (antibody)”, the Ka in assay [1] came out at 310000 M⁻¹; in assay [2] it was 3.33e+06 M⁻¹; in [4], 2.7e+09 M⁻¹. Besides, in assay [3], the A/I (ratio of affinity for sFcγRIII to that for FcγRIIB) came out at 0.1. The substance further gave a pKd in [4] of 9.42. This substance registered a fold higher affinity than to FcγRIII in [5] of 10 fold.
For the substance “TA99-IgG1 deficient in fucose (antibody)”, the Ka in assay [1] stood at 510000 M⁻¹; in assay [2], 1.32e+06 M⁻¹. Also, the A/I (ratio of affinity for sFcγRIII to that for FcγRIIB) in assay [3] came out at 0.4.
Consider “TA99-IgG2a (fucose-containing) (antibody)”, for which the Ka came to 2.9e+07 M⁻¹ in assay [6]; 680000 M⁻¹ in assay [1]; 420000 M⁻¹ in assay [2]; 1.6e+08 M⁻¹ in [7]; 1.6e+09 M⁻¹ in assay [4]. In addition, the A/I (ratio of sFcγRIV to sFcγRIIB) in assay [8] amounted to 69. The pKd in assay [4] is 9.21. In addition, in assay [9], the fold higher affinity than to FcγRIIB was 10 fold.
For “TA99-IgG2a deficient in fucose (antibody)”, the Ka in [6] stood at 3.06e+08 M⁻¹; in assay [1], 1.54e+06 M⁻¹; in [2], 3.34e+06 M⁻¹; in [7] it was 1.8e+08 M⁻¹. Besides, the A/I (ratio of sFcγRIV to sFcγRIIB) in [8] stood at 92.
With “TA99-IgG2b (fucose-containing) (antibody)”, the Ka worked out at 1.7e+07 M⁻¹ in assay [6], 640000 M⁻¹ in [1], 2.23e+06 M⁻¹ in assay [2] and 1.8e+09 M⁻¹ in assay [4]. Besides, in [8], the A/I (ratio of sFcγRIV to sFcγRIIB) came out at 7. The pKd in assay [4] was 9.24. The same substance had a fold higher affinity than to FcγRIIB in assay [9] of 10 fold.
For “TA99-IgG2b deficient in fucose (antibody)”, the Ka in [6] is 2.03e+08 M⁻¹; in [1], 1.06e+06 M⁻¹; in assay [2], 1e+07 M⁻¹. Further, in [8], the A/I (ratio of sFcγRIV to sFcγRIIB) amounted to 20.
TA99-IgG3 (antibody): in assay [4], the Ka is 1.5e+09 M⁻¹ and the pKd was 9.18.
As for human IgG1 antibody isotype, the Ka is 430000 M⁻¹ in [10], 78000 M⁻¹ in assay [11] and 250000 M⁻¹ in [12]. In assay [13], the A/I IIIA/IIB (ratio of affinity to that for FcγRIIB) stood at 5.5. Moreover, the A/I IIA/IIB (ratio of affinity to that for FcγRIIB) in [14] was 3.1.
The corresponding values for “human IgG1 antibody isotype lacking fucose” are 6e+06 M⁻¹, 78000 M⁻¹, 240000 M⁻¹, 76 and 3.1.
The corresponding values for human IgG2 antibody isotype are 14000 M⁻¹, 30000 M⁻¹, 140000 M⁻¹, 0.4 and 4.5.
The matching figures for “human IgG2 antibody isotype lacking fucose”: 140000 M⁻¹, 26000 M⁻¹, 130000 M⁻¹, 5.7 and 5.3.
For human IgG4 antibody isotype, the values for the Ka in assay [11] and in assay [12] were 48000 M⁻¹ and 35000 M⁻¹, respectively. Further, in assay [14], the A/I IIA/IIB (ratio of affinity to that for FcγRIIB) came to 0.7.
